Where a chain is given by its changes, count along the chain named. Numbered stars: 1 amine (or outer) side, 2 acyl side, 3 side chain; on linkers, the order of the positions; unused ones are H or OH. Square brackets hold non-standard residues; d marks the D form. Side chains are listed from the residue outwards. Ends that are not written are not given here. * marks the point of attachment. C20 diacid = O=C(O)CCCCCCCCCCCCCCCCCCC(=O)*; γGlu = O=C(O)[C@H](CCC(=O)[*:2])N[*:1]; αMeF = C[C@](N)(Cc1ccccc1)C(=O)O; cTA = not defined here; AEEA = NCCOCCOCC(=O)O; Aib = CC(C)(N)C(=O)O
T1: human gastric inhibitory peptide receptor (GIPR) (human, UniProt P48546 22-466)
T1 sequence (looked up): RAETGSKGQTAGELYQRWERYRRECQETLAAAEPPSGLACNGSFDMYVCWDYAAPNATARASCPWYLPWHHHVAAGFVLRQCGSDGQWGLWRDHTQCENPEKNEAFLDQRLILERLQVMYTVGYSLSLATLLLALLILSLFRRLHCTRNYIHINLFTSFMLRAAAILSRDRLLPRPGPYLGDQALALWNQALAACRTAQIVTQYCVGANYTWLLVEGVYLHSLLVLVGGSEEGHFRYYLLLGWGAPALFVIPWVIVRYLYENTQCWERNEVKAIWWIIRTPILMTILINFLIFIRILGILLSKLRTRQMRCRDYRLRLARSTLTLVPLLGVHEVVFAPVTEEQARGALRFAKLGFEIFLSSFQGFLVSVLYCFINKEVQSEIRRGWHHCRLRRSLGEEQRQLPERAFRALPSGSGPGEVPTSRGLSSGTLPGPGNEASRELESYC

B1: Example 326 (peptide)
peptide: F[Aib]EGTFTSDYSILLDKK([AEEA-AEEA-γGlu-C20 diacid])AQ[Aib]AFIEYLIEGGPSSGAPPPS-NH2
B2: Example 124 (peptide)
peptide: Y[Aib]EGT[αMeF]TSDYSIXLDEK([AEEA-AEEA-γGlu-C20 diacid])AQ[Aib]EFIEYLIEGGPSSG-NH2
modifications: not fully specified (residue 13); printed as Y-Aib-EGT-αMeF-TSDYSI-αMeF-LDEK((2-[2-(2-Amino-ethoxy)-ethoxy]-acetyl)2-(γ-Glu)-CO-(CH2)18-CO2H)AQ-Aib-EFIEYLIEGGPSSG-NH2
B3: Example 138 (peptide)
peptide: Y[Aib]EGT[αMeF]TSDYSIXLDKK([AEEA-AEEA-γGlu-C20 diacid])AQ[Aib]SFIEYLIEGGPSSGAPPPS-NH2
modifications: not fully specified (residue 13); printed as Y-Aib-EGT-αMeF-TSDYSI-αMeF-LDKK((2-[2-(2-Amino-ethoxy)-ethoxy]-acetyl)2-(γ-Glu)-CO-(CH2)18-CO2H)AQ-Aib-SFIEYLIEGGPSSGAPPPS-NH2
B4: Example 323 (peptide)
peptide: YXEGTFTSDYSIXLDEKAQXAFIEYLIEGGPSSGAPPPS
modifications: Aib2, αMeL13, K17 conjugated to (2-[2-(2-Amino-ethoxy)-ethoxy]-acetyl)2-(γ-Glu)-CO-(CH2)16-CO2H, Aib20, C-terminal amide (NH2)
B5: Example 325 (peptide)
peptide: B4 peptide with F6X, X13L, E16K
modifications: Aib2, αMeF(2F)6, K17 conjugated to (2-[2-(2-Amino-ethoxy)-ethoxy]-acetyl)2-(γ-Glu)-CO-(CH2)18-CO2H, Aib20, C-terminal amide (NH2)
B6: Example 186 (peptide)
peptide: B4 peptide with F6X, Y10X, A21E, E24X
modifications: Y-Aib-EGT-αMeF(2F)-TSD-αMeY-SI-αMeF-LDEK((2-[2-(2-Amino-ethoxy)-ethoxy]-acetyl)2-(γ-Glu)-CO-(CH2)18-CO2H)AQ-Aib-EFI-(D-Glu)-YLIEGGPSSGAPPPS-NH2
B7: Example 226 (peptide)
peptide: B4 peptide with F6X, X13L, A21E, E24X
modifications: Y-Aib-EGT-αMeF(2F)-TSDYSILLDEK((2-[2-(2-Amino-ethoxy)-ethoxy]-acetyl)2-(γ-Glu)-CO-(CH2)18-CO2H)AQ-Aib-EFI-(D-Glu)-YLIEGGPSSGAPPPS-NH2
B8: Example 128 (peptide)
peptide: B4 peptide with F6X, Y10H, X13L, E16K
modifications: Y-Aib-EGT-αMeF-TSDHSILLDKK((2-[2-(2-Amino-ethoxy)-ethoxy]-acetyl)2-(γ-Glu)-CO-(CH2)18-CO2H)AQ-Aib-AFIEYLIEGGPSSGAPPPS-NH2
B9: Example 131 (peptide)
peptide: B4 peptide with F6X, Y10X, X13L, E16K
modifications: Y-Aib-EGT-αMeF-TSD-αMeF-SILLDKK((2-[2-(2-Amino-ethoxy)-ethoxy]-acetyl)2-(γ-Glu)-CO-(CH2)18-CO2H)AQ-Aib-AFIEYLIEGGPSSGAPPPS-NH2
B10: Example 324 (peptide)
peptide: B4 peptide with E16K, E28A
modifications: Aib2, αMeL13, K17 conjugated to (2-[2-(2-Amino-ethoxy)-ethoxy]-acetyl)2-(γ-Glu)-CO-(CH2)18-CO2H (printed "(CH2)1s"), Aib20, C-terminal amide (NH2)
B11: Example 132 (peptide)
peptide: B4 peptide with F6X, Y10X, X13L, E16K
modifications: Y-Aib-EGT-αMeF-TSD-3Pal-SILLDKK((2-[2-(2-Amino-ethoxy)-ethoxy]-acetyl)2-(γ-Glu)-CO-(CH2)18-CO2H)AQ-Aib-AFIEYLIEGGPSSGAPPPS-NH2
B12: Example 225 (peptide)
peptide: B4 peptide with F6X, A21E, E24X
modifications: Y-Aib-EGT-αMeF-TSDYSI-Aib-LDEK((2-[2-(2-Amino-ethoxy)-ethoxy]-acetyl)2-(γ-Glu)-CO-(CH2)18-CO2H)AQ-Aib-EFI-(D-Glu)-YLIEGGPSSGAPPPS-NH2
B13: Example 127 (peptide)
peptide: B4 peptide with F6X, Y10I, X13L, E16K
modifications: Y-Aib-EGT-αMeF-TSDISILLDKK((2-[2-(2-Amino-ethoxy)-ethoxy]-acetyl)2-(γ-Glu)-CO-(CH2)18-CO2H)AQ-Aib-AFIEYLIEGGPSSGAPPPS-NH2
B14: Example 130 (peptide)
peptide: B4 peptide with F6X, Y10E, X13L, E16K
modifications: Y-Aib-EGT-αMeF-TSDESILLDKK((2-[2-(2-Amino-ethoxy)-ethoxy]-acetyl)2-(γ-Glu)-CO-(CH2)18-CO2H)AQ-Aib-AFIEYLIEGGPSSGAPPPS-NH2
B15: Example 129 (peptide)
peptide: B4 peptide with F6X, Y10L, X13L, E16K
modifications: Y-Aib-EGT-αMeF-TSDLSILLDKK((2-[2-(2-Amino-ethoxy)-ethoxy]-acetyl)2-(γ-Glu)-CO-(CH2)18-CO2H)AQ-Aib-AFIEYLIEGGPSSGAPPPS-NH2
B16: Example 328 (peptide)
peptide: B4 peptide with Y1F, E16K, G29A
modifications: Aib2, αMeL13, K17 conjugated to (2-[2-(2-Amino-ethoxy)-ethoxy]-acetyl)2-(γ-Glu)-CO-(CH2)16-CO2H, Aib20, C-terminal amide (NH2)
B17: Example 319 (peptide)
peptide: Y[Aib]EGTFTSDYSILLDKK([AEEA-AEEA-γGlu-C20 diacid])AQ[Aib]EFIEYLIAGGPSSGAPPPS-NH2
modifications: N-terminus assumed
SMILES: CC[C@H](C)[C@H](NC(=O)[C@H](CC(C)C)NC(=O)[C@H](Cc1ccc(O)cc1)NC(=O)[C@H](CCC(=O)O)NC(=O)[C@@H](NC(=O)[C@H](Cc1ccccc1)NC(=O)[C@H](CCC(=O)O)NC(=O)C(C)(C)NC(=O)[C@H](CCC(N)=O)NC(=O)[C@H](C)NC(=O)[C@H](CCCCNC(=O)COCCOCCNC(=O)COCCOCCNC(=O)CC[C@H](NC(=O)CCCCCCCCCCCCCCCCCCC(=O)O)C(=O)O)NC(=O)[C@H](CCCCN)NC(=O)[C@H](CC(=O)O)NC(=O)[C@H](CC(C)C)NC(=O)[C@H](CC(C)C)NC(=O)[C@@H](NC(=O)[C@H](CO)NC(=O)[C@H](Cc1ccc(O)cc1)NC(=O)[C@H](CC(=O)O)NC(=O)[C@H](CO)NC(=O)[C@@H](NC(=O)[C@H](Cc1ccccc1)NC(=O)[C@@H](NC(=O)CNC(=O)[C@H](CCC(=O)O)NC(=O)C(C)(C)NC(=O)[C@@H](N)Cc1ccc(O)cc1)[C@@H](C)O)[C@@H](C)O)[C@@H](C)CC)[C@@H](C)CC)C(=O)N[C@@H](C)C(=O)NCC(=O)NCC(=O)N1CCC[C@H]1C(=O)N[C@@H](CO)C(=O)N[C@@H](CO)C(=O)NCC(=O)N[C@@H](C)C(=O)N1CCC[C@H]1C(=O)N1CCC[C@H]1C(=O)N1CCC[C@H]1C(=O)N[C@@H](CO)C(N)=O
B18: Example 123 (peptide)
peptide: Y[Aib]EGT[αMeF]TSDYSIXLDKK([AEEA-AEEA-γGlu-C20 diacid])AQ[Aib]EFIEYLIEGGPSSG-NH2
modifications: not fully specified (residue 13); printed as Y-Aib-EGT-αMeF-TSDYSI-αMeF-LDKK((2-[2-(2-Amino-ethoxy)-ethoxy]-acetyl)2-(γ-Glu)-CO-(CH2)18-CO2H)AQ-Aib-EFIEYLIEGGPSSG-NH2
B19: Example 120 (peptide)
peptide: Y[Aib][cTA]GT[αMeF]TSDYSIXLDEK([AEEA-AEEA-γGlu-C20 diacid])AQ[Aib]AFIEYLIEGGPSSGAPPPS-NH2
modifications: not fully specified (residue 13); printed as Y-Aib-cTA-GT-αMeF-TSDYSI-αMeF-LDEK((2-[2-(2-Amino-ethoxy)-ethoxy]-acetyl)2-(γ-Glu)-CO-(CH2)18-CO2H)AQ-Aib-AFIEYLIEGGPSSGAPPPS-NH2
B20: Example 126 (peptide)
peptide: Y[Aib]EGT[αMeF]TSDYSIXLDKK([AEEA-AEEA-γGlu-C20 diacid])AQ[Aib]AFIEYLIEAGPSSGAPPPS-NH2
modifications: not fully specified (residue 13); printed as Y-Aib-EGT-αMeF-TSDYSI-αMeF-LDKK((2-[2-(2-Amino-ethoxy)-ethoxy]-acetyl)2-(γ-Glu)-CO-(CH2)18-CO2H)AQ-Aib-AFIEYLIEAGPSSGAPPPS-NH2

Legend:
Assay in all cases: cell-based or functional assay
human GLP-1 receptor = human GLP-1 receptor (human, UniProt P43220 24-463)
[1] = target: human GLP-1 receptor (GLP-1R) (human, UniProt P43220 24-463)
[2] = target: T1, human gastric inhibitory peptide …

| Binder | hGLP1R GTPgS % Top (human GLP-1 receptor) [%] | hGLP1R GTPgS Rel EC50 (human GLP-1 receptor) [nM] | hGLP1R cAMP EC50 ratio [1] | hGLP1R cAMP Rel EC50 [1] [nM] | hGIPR cAMP EC50 ratio [2] | hGIPR cAMP Rel EC50 [2] [nM] |
| --- | --- | --- | --- | --- | --- | --- |
| B1 | 61.6 | 0.663 | – | – | – | – |
| B2 | – | – | 1.29 | 0.0475 | 2.18 | 0.0762 |
| B3 | – | – | – | – | – | 0.0581 |
| B4 | 81.9 | 0.79 | – | – | – | – |
| B5 | 97.9 | 0.414 | – | – | – | – |
| B6 | – | – | 0.572 | 0.0939 | – | – |
| B7 | – | – | – | – | – | 0.0461 |
| B8 | – | – | 0.7 | 0.0924 | 2.46 | 0.0694 |
| B9 | – | – | 0.425 | 0.156 | 1.03 | 0.183 |
| B10 | 84.5 | 0.475 | – | – | – | – |
| B11 | – | – | 0.255 | 0.26 | 2.88 | 0.0657 |
| B12 | – | – | – | – | – | 0.101 |
| B13 | – | – | 0.443 | 0.145 | 0.917 | 0.158 |
| B14 | – | – | 0.182 | 0.368 | 0.116 | 1.55 |
| B15 | – | – | 0.543 | 0.121 | 1.88 | 0.106 |
| B16 | 66.3 | 0.481 | – | – | – | – |
| B17 | 65.7 | 0.657 | – | – | – | – |
| B18 | – | – | 1.58 | 0.0344 | 4.04 | 0.0423 |
| B19 | – | – | 0.319 | 0.201 | 1.67 | 0.122 |
| B20 | – | – | 0.869 | 0.0715 | 2.53 | 0.0685 |
